B1: unnamed (protein)
chain 1: QVQLVQSGAEVKKPGASVKVSCKASGYSFTSSWIHWVKQAPGQGLEWMGEINPGNVRTNYNENFRNKVTMTVDTSISTAYMELSRLRSDDTAVYYCTRVRFGEPYFDYWGQGTLVTVSS
chain 2: QIVLTQSPGTLSLSPGERATMTCTASSSVSSSYFHWYQQKPGQAPRLWIYRTSRLASGVPDRFSGSGSGTDFTLTISRLEPEDAATYYCHQFHRSPLTFGAGTKLEIK
B2: unnamed (protein)
chain 1: QVQLVQSGAEVKKPGASVKVSCKASGYSFTSSWIHWVKQAPGQGLEWMGEINPGNVRTNYNENFRNKVTMTVDTSISTAYMELSRLRSDDTAVYYCTRVRYGEPWFDYWGQGTLVTVSS
chain 2: QIVLTQSPGTLSLSPGERATMTCTASSSVSSSYFHWYQQKPGQAPRLWIYRTSRLASGVPDRFSGSGSGTDFTLTISRLEPEDAATYYCHQFHRSPLTFGAGTKLEIK
B3: unnamed (protein)
chain 1: QVQLVQSGAEVKKPGASVKVSCKASGYSFTSSWIHWVKQAPGQGLEWMGEINPGNVRTNYNENFRNKVTMTVDTSISTAYMELSRLRSDDTAVYYCTRIRYGEPYFDYWGQGTLVTVSS
chain 2: QIVLTQSPGTLSLSPGERATMTCTASSSVSSSYFHWYQQKPGQAPRLWIYRTSRLASGVPDRFSGSGSGTDFTLTISRLEPEDAATYYCHQFHRSPLTFGAGTKLEIK
B4: unnamed (protein)
chain 1: QVQLVQSGAEVKKPGASVKVSCKASGYSFTSSWIHWVKQAPGQGLEWMGEINPGNVRTNYNENFRNKVTMTVDTSISTAYMELSRLRSDDTAVYYCTRVRFGYPWFDYWGQGTLVTVSS
chain 2: QIVLTQSPGTLSLSPGERATMTCTASSSVSSSYFHWYQQKPGQAPRLWIYRTSRLASGVPDRFSGSGSGTDFTLTISRLEPEDAATYYCHQFHRSPLTFGAGTKLEIK
B5: unnamed (protein)
chain 1: QVQLVQSGAEVKKPGASVKVSCKASGYSFTSSWIHWVKQAPGQGLEWMGEINPGNVRTNYNENFRNKVTMTVDTSISTAYMELSRLRSDDTAVYYCTRVRYGYPWFDYWGQGTLVTVSS
chain 2: QIVLTQSPGTLSLSPGERATMTCTASSSVSSSYFHWYQQKPGQAPRLWIYRTSRLASGVPDRFSGSGSGTDFTLTISRLEPEDAATYYCHQFHRSPLTFGAGTKLEIK
B6: unnamed (protein)
chain 1: QVQLVQSGAEVKKPGASVKVSCKASGYSFTSSWIHWVKQAPGQGLEWMGEINPGNVRTNYNENFRNKVTMTVDTSISTAYMELSRLRSDDTAVYYCTRVMYGEPYFDYWGQGTLVTVSS
chain 2: QIVLTQSPGTLSLSPGERATMTCTASSSVSSSYFHWYQQKPGQAPRLWIYRTSRLASGVPDRFSGSGSGTDFTLTISRLEPEDAATYYCHQFHRSPLTFGAGTKLEIK
B7: unnamed (protein)
chain 1: QVQLVQSGAEVKKPGASVKVSCKASGYSFTSSWIHWVKQAPGQGLEWMGEINPGNVRTNYNENFRNKVTMTVDTSISTAYMELSRLRSDDTAVYYCTRVSFGEPWFDYWGQGTLVTVSS
chain 2: QIVLTQSPGTLSLSPGERATMTCTASSSVSSSYFHWYQQKPGQAPRLWIYRTSRLASGVPDRFSGSGSGTDFTLTISRLEPEDAATYYCHQFHRSPLTFGAGTKLEIK
B8: unnamed (protein)
chain 1: QVQLVQSGAEVKKPGASVKVSCKASGYSFTSSWIHWVKQAPGQGLEWMGEINPGNVRTNYNENFRNKVTMTVDTSISTAYMELSRLRSDDTAVYYCTRVFYGEPYFDYWGQGTLVTVSS
chain 2: QIVLTQSPGTLSLSPGERATMTCTASSSVSSSYFHWYQQKPGQAPRLWIYRTSRLASGVPDRFSGSGSGTDFTLTISRLEPEDAATYYCHQFHRSPLTFGAGTKLEIK
B9: unnamed (protein)
chain 1: QVQLVQSGAEVKKPGASVKVSCKASGYSFTSSWIHWVKQAPGQGLEWMGEINPGNVRTNYNENFRNKVTMTVDTSISTAYMELSRLRSDDTAVYYCTRVTYGEPYFDYWGQGTLVTVSS
chain 2: QIVLTQSPGTLSLSPGERATMTCTASSSVSSSYFHWYQQKPGQAPRLWIYRTSRLASGVPDRFSGSGSGTDFTLTISRLEPEDAATYYCHQFHRSPLTFGAGTKLEIK
B10: unnamed (protein)
chain 1: QVQLVQSGAEVKKPGASVKVSCKASGYSFTSSWIHWVKQAPGQGLEWMGEINPGNVRTNYNENFRNKVTMTVDTSISTAYMELSRLRSDDTAVYYCTRVRFGEPWFDYWGQGTLVTVSS
chain 2: QIVLTQSPGTLSLSPGERATMTCTASSSVSSSYFHWYQQKPGQAPRLWIYRTSRLASGVPDRFSGSGSGTDFTLTISRLEPEDAATYYCHQFHRSPLTFGAGTKLEIK
B11: unnamed (protein)
chain 1: QVQLVQSGAEVKKPGASVKVSCKASGYSFTSSWIHWVKQAPGQGLEWMGEINPGNVRTNYNENFRNKVTMTVDTSISTAYMELSRLRSDDTAVYYCTRVVFGEPYFDYWGQGTLVTVSS
chain 2: QIVLTQSPGTLSLSPGERATMTCTASSSVSSSYFHWYQQKPGQAPRLWIYRTSRLASGVPDRFSGSGSGTDFTLTISRLEPEDAATYYCHQFHRSPLTFGAGTKLEIK
B12: unnamed (protein)
chain 1: QVQLVQSGAEVKKPGASVKVSCKASGYSFTSSWIHWVKQAPGQGLEWMGEINPGNVRTNYNENFRNKVTMTVDTSISTAYMELSRLRSDDTAVYYCTRQTYGEPYFDYWGQGTLVTVSS
chain 2: QIVLTQSPGTLSLSPGERATMTCTASSSVSSSYFHWYQQKPGQAPRLWIYRTSRLASGVPDRFSGSGSGTDFTLTISRLEPEDAATYYCHQFHRSPLTFGAGTKLEIK
B13: unnamed (protein)
chain 1: QVQLVQSGAEVKKPGASVKVSCKASGYSFTSSWIHWVKQAPGQGLEWMGEINPGNVRTNYNENFRNKVTMTVDTSISTAYMELSRLRSDDTAVYYCTRVQYGYPYFDYWGQGTLVTVSS
chain 2: QIVLTQSPGTLSLSPGERATMTCTASSSVSSSYFHWYQQKPGQAPRLWIYRTSRLASGVPDRFSGSGSGTDFTLTISRLEPEDAATYYCHQFHRSPLTFGAGTKLEIK
B14: unnamed (protein)
chain 1: QVQLVQSGAEVKKPGASVKVSCKASGYSFTSSWIHWVKQAPGQGLEWMGEINPGNVRTNYNENFRNKVTMTVDTSISTAYMELSRLRSDDTAVYYCTRVSYGEPYFDYWGQGTLVTVSS
chain 2: QIVLTQSPGTLSLSPGERATMTCTASSSVSSSYFHWYQQKPGQAPRLWIYRTSRLASGVPDRFSGSGSGTDFTLTISRLEPEDAATYYCHQFHRSPLTFGAGTKLEIK
B15: unnamed (protein)
chain 1: QVQLVQSGAEVKKPGASVKVSCKASGYSFTSSWIHWVKQAPGQGLEWMGEINPGNVRTNYNENFRNKVTMTVDTSISTAYMELSRLRSDDTAVYYCTRVSFGEPYFDYWGQGTLVTVSS
chain 2: QIVLTQSPGTLSLSPGERATMTCTASSSVSSSYFHWYQQKPGQAPRLWIYRTSRLASGVPDRFSGSGSGTDFTLTISRLEPEDAATYYCHQFHRSPLTFGAGTKLEIK
B16: unnamed (protein)
chain 1: QVQLVQSGAEVKKPGASVKVSCKASGYSFTSSWIHWVKQAPGQGLEWMGEINPGNVRTNYNENFRNKVTMTVDTSISTAYMELSRLRSDDTAVYYCTRVSYGEPWFDYWGQGTLVTVSS
chain 2: QIVLTQSPGTLSLSPGERATMTCTASSSVSSSYFHWYQQKPGQAPRLWIYRTSRLASGVPDRFSGSGSGTDFTLTISRLEPEDAATYYCHQFHRSPLTFGAGTKLEIK
B17: unnamed (protein)
chain 1: QVQLVQSGAEVKKPGASVKVSCKASGYSFTSSWIHWVKQAPGQGLEWMGEINPGNVRTNYNENFRNKVTMTVDTSISTAYMELSRLRSDDTAVYYCTTVRYGEPYFDYWGQGTLVTVSS
chain 2: QIVLTQSPGTLSLSPGERATMTCTASSSVSSSYFHWYQQKPGQAPRLWIYRTSRLASGVPDRFSGSGSGTDFTLTISRLEPEDAATYYCHQFHRSPLTFGAGTKLEIK
B18: unnamed (protein)
chain 1: QVQLVQSGAEVKKPGASVKVSCKASGYSFTSSWIHWVKQAPGQGLEWMGEINPGNVRTNYNENFRNKVTMTVDTSISTAYMELSRLRSDDTAVYYCTRSRYGEPYFDYWGQGTLVTVSS
chain 2: QIVLTQSPGTLSLSPGERATMTCTASSSVSSSYFHWYQQKPGQAPRLWIYRTSRLASGVPDRFSGSGSGTDFTLTISRLEPEDAATYYCHQFHRSPLTFGAGTKLEIK
B19: unnamed (protein)
chain 1: QVQLVQSGAEVKKPGASVKVSCKASGYSFTSSWIHWVKQAPGQGLEWMGEINPGNVRTNYNENFRNKVTMTVDTSISTAYMELSRLRSDDTAVYYCTRVQFGEPYFDYWGQGTLVTVSS
chain 2: QIVLTQSPGTLSLSPGERATMTCTASSSVSSSYFHWYQQKPGQAPRLWIYRTSRLASGVPDRFSGSGSGTDFTLTISRLEPEDAATYYCHQFHRSPLTFGAGTKLEIK

For this assay, the target named is IL36R. The experiment in a line: Kd (SPR).
The Kd is the free concentration of one partner at which half of the binding sites on the other are occupied at equilibrium, for simple one-to-one binding. A higher Kd goes with lower affinity. Molecule B1 showed a Kd of 3.28 nM. As for B2, the figure is 0.888 nM; as for B3, 12.3 nM. As for B4, the figure is 0.689 nM; as for B5, 1.04 nM.

As to B6, the Kd stood at 3.16 nM. With B7 the figure was 7.07 nM; with B8, 1.13 nM; with B9, 0.991 nM. For the molecule B10, the Kd worked out at 4.32 nM. With B11 the figure was 1.54 nM; with B12, 274 nM.

B13 displayed a dissociation constant Kd of 1.87 nM.

In turn, B14 had a Kd of 0.759 nM.

B15 registered a Kd of 0.758 nM. The Kd values of the last two molecules are within 1.5-fold of each other.

Consider B16, for which the Kd is 1.4 nM. Against the preceding molecule, the Kd is about 1.8-fold higher. With B17 the figure was 0.888 nM; with B18, 4.79 nM; with B19, 1.61 nM.
